Experimental data from IntAct's records for PubMed 18387954.

B1: Src substrate cortactin (Homo sapiens), Q14247 (parent)
chain: MWKASAGHAVSIAQDDAGADDWETDPDFVNDVSEKEQRWGAKTVQGSGHQEHINIHKLRENVFQEHQTLKEKELETGPKASHGYGGKFGVEQDRMDKSAVGHEYQSKLSKHCSQVDSVRGFGGKFGVQMDRVDQSAVGFEYQGKTEKHASQKDYSSGFGGKYGVQADRVDKSAVGFDYQGKTEKHESQRDYSKGFGGKYGIDKDKVDKSAVGFEYQGKTEKHESQKDYVKGFGGKFGVQTDRQDKCALGWDHQEKLQLHESQKDYKTGFGGKFGVQSERQDSAAVGFDYKEKLAKHESQQDYSKGFGGKYGVQKDRMDKNASTFEDVTQVSSAYQKTVPVEAVTSKTSNIRANFENLAKEKEQEDRRKAEAERAQRMAKERQEQEEARRKLEEQARAKTQTPPVSPAPQPTEERLPSSPVYEDAASFKAELSYRGPVSGTEPEPVYSMEAADYREASSQQGLAYATEAVYESAEAPGHYPAEDSTYDEYENDLGITAVALYDYQAAGDDEISFDPDDIITNIEMIDDGWWRGVCKGRYGLFPANYVELRQ
partner: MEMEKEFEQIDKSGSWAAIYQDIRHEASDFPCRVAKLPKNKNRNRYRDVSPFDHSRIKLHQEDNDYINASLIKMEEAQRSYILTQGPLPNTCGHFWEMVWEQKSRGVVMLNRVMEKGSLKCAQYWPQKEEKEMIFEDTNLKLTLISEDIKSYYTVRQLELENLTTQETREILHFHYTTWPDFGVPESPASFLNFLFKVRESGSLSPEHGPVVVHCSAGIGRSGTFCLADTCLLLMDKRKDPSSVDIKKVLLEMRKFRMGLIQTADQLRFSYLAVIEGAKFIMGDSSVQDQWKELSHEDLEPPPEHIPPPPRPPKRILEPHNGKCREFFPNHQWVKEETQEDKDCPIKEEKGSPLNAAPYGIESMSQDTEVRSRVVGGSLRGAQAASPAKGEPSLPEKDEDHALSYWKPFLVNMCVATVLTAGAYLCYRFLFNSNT

Variants of: B1
Conditions: with ptn1_human PTPN1, P18031

effect of a mutation on the interaction | Variant
disrupting interaction | Y446F
